Measurements published in US20230087785A1, “Leucine-Rich Repeat Kinase 2 Allosteric Modulators” (VIB VZW, priority 2020, published 2023).
Changes are numbered by the printed parent chain.

T1: LRRK2 Roc domain construct (human, UniProt Q5S007 1329-1520)
T1 construct: not shown: N-terminal His6-tag of pET-28a
T1 sequence: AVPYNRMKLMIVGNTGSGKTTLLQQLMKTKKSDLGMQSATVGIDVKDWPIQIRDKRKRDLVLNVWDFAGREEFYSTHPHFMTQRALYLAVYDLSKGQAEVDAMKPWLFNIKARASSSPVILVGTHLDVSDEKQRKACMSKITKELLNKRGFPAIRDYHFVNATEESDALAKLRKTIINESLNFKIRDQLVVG

T2: LRRK2 RocCOR domain construct (human, UniProt Q5S007 1334-1840)
T2 construct: A second construct (residues 1293-1840, N-terminal His6-MBP) was used in certain screening experiments; not shown: N-terminal Twin-Strep-tag; C-terminal His10-tag
T2 sequence: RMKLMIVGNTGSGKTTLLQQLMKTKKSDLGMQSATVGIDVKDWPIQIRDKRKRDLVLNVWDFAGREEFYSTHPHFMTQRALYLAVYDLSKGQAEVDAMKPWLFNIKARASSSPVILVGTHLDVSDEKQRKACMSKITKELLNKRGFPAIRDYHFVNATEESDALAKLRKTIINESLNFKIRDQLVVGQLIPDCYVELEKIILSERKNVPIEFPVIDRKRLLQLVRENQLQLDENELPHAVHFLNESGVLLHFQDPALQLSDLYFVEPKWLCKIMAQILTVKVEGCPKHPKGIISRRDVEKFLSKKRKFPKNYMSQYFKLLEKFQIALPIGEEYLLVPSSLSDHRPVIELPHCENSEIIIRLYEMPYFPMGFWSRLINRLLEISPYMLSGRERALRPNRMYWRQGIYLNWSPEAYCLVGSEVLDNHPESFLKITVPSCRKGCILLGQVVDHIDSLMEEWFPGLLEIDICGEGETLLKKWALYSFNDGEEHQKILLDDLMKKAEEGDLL

T3: LRRK2 kinase-WD40 domain construct (human, UniProt Q5S007 1876-2527)
T3 construct: also called K-WD40; not shown: N-terminal His-tag (pFastBac)
T3 sequence: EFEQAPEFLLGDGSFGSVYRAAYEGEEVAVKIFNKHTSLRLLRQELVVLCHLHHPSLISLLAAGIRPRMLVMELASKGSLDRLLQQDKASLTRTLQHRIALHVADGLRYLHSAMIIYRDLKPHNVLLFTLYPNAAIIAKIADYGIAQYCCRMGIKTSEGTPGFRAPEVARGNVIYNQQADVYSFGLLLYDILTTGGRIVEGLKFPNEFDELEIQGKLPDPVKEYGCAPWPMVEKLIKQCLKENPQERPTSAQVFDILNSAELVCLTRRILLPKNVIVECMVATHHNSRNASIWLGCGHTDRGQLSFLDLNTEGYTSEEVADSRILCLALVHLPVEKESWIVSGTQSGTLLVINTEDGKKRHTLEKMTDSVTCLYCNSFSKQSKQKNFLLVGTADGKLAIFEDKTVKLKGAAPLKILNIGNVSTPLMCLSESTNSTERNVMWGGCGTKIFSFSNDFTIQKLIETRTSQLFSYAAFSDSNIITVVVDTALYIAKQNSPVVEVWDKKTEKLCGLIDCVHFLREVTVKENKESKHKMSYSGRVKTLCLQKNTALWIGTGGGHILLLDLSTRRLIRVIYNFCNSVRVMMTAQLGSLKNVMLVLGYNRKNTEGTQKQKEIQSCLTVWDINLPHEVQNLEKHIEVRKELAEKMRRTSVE

B1: Nb35 (CA16072) (VHH)
VHH: QVQLVESGGGLVQPGGSLRLSCAASGFPFSTYYMSWVRQAPGKGLEWVSAISPGGDTAYADSVKDRFTISRDSAKNTVYLQMSSLKPEDTAVYYCAAVRFLRAPDLTEKRLYEYWGQGTQVTVSS
B2: Nb3 (CA12614) (VHH)
VHH: QVQLVESGGGLVQPGGSLRLSCAASGSIFRRNAMGWYRQVTGKERELVAGITSGGYTNYRDFVKGRFTISRDNAKNTVYLQMNNLKPEDTAVYYCNLLSEMLQTVWGQGTQVTVSS
B3: Nb36 (CA14130) (VHH)
VHH: QVQLVESGGGLVQPGGSLRLSCAASGSIRSITTSAWFRQPPGKQRELVAGISSGTSTNYADSVKGRFTISRDNAKNTVYLQMNSLKPEDTAVYYCHVWISGTWYSGQGTQVTVSS
B4: Nb38 (CA14133) (VHH)
VHH: B3 VHH with T32A, F37Y, S56T, V97A, Y104I
B5: Nb39 (CA14134) (VHH)
VHH: QVQLVESGGGLVQAGGSLRLSCRASGGTFSTYAMGWFRQVPGKERETVAAVKWSGDMTYYADSVKGRFTISRDNAKNTVYLQMNSLRPEDTAVYYCAARRGLSYYRGPSEYDYWGQGTQVTVSS
B6: Nb17 (CA13606) (VHH)
VHH: QVQLVESGGGLVQPGGSLRLSCAASGSNIGYMAWYRQAPGSQRELVARIASGGSANYADSVKGRFTISRDNVKNTVYLHMNSLKPVDTAVYYCHADAWYNSRWSDYWGQGTQVTVSS
B7: Nb37 (CA14131) (VHH)
VHH: QVQLVESGGGLVQPGGSLRLSCAASGSVFSTNTMAWFRQAPGKQREWVGGITPGGFTNYINSVKGRFTISRDNANNTIYLQMSSLRPEDTAVYYCNTLSRMALWGQGTQVTVSS
B8: Nb23 (CA13612)-GFP fusion (VHH)
VHH: QVQLVESGGGLVQAGGSLRLSCAASGRTFSRYTMGWFRQAPGKDREFVARITTSGAVTTYADSAKGRFTISRDNAKNTVYLQMNTLKPEDTAVYYCAAGQGQLSSQSRFVDYWGQGTQVTVSS
notes: expressed in cells as intrabody; also called GFP-Nb23; fluobody Nb23; not shown: enhanced GFP fused to the C-terminus of the Nb (pEGFP-N1)
B9: Nb22 (CA13611)-GFP fusion (VHH)
VHH: QVQLVESGGGLVQAGGSLRLSCAASGRTFSSYTMGWFRQAPGKEREFVAAIRWSGGSTYYADSVKGRFTISRDNAKNTVYLQMNSLKPEDTAVYYCAASDRGGFIATSGGWMDYWGKGTQVTVSS
notes: expressed in cells as intrabody; also called GFP-Nb22; fluobody Nb22; not shown: enhanced GFP fused to the C-terminus of the Nb (pEGFP-N1)

target: T4, LRRK2 COR-B construct (C-terminal part of the COR domain), His6-MBP tagged (human, UniProt Q5S007 1672-1840); assay: ELISA, antigen coated on the plate, purified Nb detected via its EPEA tag
T4 construct: also called (MBP-)COR-B; not shown: N-terminal His6-MBP-tag of pDEST-566
Summary of the method: (§1)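 The RocCOR, Roc, COR-B and kinase-WD40 constructs were coated side by side on one ELISA plate. Binding of each purified nanobody to every coated construct was then detected.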

Binder	binding result
B1	no binding (tested: not given)

target: T1, LRRK2 Roc domain construct; assay: as above
Summary of the method: as §1

Binder	binding result
B2	no binding (tested: not given)

target: T2, LRRK2 RocCOR domain construct; assay: as above
Summary of the method: as §1

Binder	binding result
B1	no binding (tested: not given)

target: T3, LRRK2 kinase-WD40 domain construct; assay: as above
Summary of the method: as §1

Binder	binding result
B1	no binding (tested: not given)
B2	no binding (tested: not given)

target: T5, Full-length human Leucine-rich repeat kinase 2 (LRRK2), N-terminal Strep/Flag (SF) tagged (human, UniProt Q5S007 1-2527); assay: BLI; Nb on LRRK2 trapped on streptavidin sensor via biotinylated Nb40; steady-state fit
T5 construct: Purified from HEK293T cells in presence of GDP or GTPγS; also called FL LRRK2; FL-LRRK2
Method: To determine the binding affinity (dissociation constant KD) of the ten Nbs for LRRK2, two methods were used in parallel: microscale thermophoresis (MST) and bio-layer interferometry (BLI). For the MST experiment, we site-specifically labeled the ten Nbs with a m-TAM RA fluorophore at its C-terminus, using sortase-mediated coupling, and then titrated increasing amounts of full-length LRRK2 to these Nbs (FIGS. 13A-13E).
Biolayer interferometry (BLI) measurements were performed using an Octet Red96 (Forte Bio, Inc.) system in a buffer containing 50 mM HEPES pH 8.0, 150 mM NaCl, 10 mM MgCl₂, 5% glycerol, 0.1% BSA, 0.05% Tween, at 25° C. and with shaking speed 1000 rpm. […] The biotinylated Nbs were first loaded on pre-equilibrated SA biosensors at a concentration of 5 μg/mL. This Nb-loaded sensor was then used to trap FL-LRRK2 from a 50 nM LRRK2 solution. […] All experiments were performed in triplicate.

T5 sequence (Q5S007 other isoform, or with tags, fused parts or gaps limits assumed): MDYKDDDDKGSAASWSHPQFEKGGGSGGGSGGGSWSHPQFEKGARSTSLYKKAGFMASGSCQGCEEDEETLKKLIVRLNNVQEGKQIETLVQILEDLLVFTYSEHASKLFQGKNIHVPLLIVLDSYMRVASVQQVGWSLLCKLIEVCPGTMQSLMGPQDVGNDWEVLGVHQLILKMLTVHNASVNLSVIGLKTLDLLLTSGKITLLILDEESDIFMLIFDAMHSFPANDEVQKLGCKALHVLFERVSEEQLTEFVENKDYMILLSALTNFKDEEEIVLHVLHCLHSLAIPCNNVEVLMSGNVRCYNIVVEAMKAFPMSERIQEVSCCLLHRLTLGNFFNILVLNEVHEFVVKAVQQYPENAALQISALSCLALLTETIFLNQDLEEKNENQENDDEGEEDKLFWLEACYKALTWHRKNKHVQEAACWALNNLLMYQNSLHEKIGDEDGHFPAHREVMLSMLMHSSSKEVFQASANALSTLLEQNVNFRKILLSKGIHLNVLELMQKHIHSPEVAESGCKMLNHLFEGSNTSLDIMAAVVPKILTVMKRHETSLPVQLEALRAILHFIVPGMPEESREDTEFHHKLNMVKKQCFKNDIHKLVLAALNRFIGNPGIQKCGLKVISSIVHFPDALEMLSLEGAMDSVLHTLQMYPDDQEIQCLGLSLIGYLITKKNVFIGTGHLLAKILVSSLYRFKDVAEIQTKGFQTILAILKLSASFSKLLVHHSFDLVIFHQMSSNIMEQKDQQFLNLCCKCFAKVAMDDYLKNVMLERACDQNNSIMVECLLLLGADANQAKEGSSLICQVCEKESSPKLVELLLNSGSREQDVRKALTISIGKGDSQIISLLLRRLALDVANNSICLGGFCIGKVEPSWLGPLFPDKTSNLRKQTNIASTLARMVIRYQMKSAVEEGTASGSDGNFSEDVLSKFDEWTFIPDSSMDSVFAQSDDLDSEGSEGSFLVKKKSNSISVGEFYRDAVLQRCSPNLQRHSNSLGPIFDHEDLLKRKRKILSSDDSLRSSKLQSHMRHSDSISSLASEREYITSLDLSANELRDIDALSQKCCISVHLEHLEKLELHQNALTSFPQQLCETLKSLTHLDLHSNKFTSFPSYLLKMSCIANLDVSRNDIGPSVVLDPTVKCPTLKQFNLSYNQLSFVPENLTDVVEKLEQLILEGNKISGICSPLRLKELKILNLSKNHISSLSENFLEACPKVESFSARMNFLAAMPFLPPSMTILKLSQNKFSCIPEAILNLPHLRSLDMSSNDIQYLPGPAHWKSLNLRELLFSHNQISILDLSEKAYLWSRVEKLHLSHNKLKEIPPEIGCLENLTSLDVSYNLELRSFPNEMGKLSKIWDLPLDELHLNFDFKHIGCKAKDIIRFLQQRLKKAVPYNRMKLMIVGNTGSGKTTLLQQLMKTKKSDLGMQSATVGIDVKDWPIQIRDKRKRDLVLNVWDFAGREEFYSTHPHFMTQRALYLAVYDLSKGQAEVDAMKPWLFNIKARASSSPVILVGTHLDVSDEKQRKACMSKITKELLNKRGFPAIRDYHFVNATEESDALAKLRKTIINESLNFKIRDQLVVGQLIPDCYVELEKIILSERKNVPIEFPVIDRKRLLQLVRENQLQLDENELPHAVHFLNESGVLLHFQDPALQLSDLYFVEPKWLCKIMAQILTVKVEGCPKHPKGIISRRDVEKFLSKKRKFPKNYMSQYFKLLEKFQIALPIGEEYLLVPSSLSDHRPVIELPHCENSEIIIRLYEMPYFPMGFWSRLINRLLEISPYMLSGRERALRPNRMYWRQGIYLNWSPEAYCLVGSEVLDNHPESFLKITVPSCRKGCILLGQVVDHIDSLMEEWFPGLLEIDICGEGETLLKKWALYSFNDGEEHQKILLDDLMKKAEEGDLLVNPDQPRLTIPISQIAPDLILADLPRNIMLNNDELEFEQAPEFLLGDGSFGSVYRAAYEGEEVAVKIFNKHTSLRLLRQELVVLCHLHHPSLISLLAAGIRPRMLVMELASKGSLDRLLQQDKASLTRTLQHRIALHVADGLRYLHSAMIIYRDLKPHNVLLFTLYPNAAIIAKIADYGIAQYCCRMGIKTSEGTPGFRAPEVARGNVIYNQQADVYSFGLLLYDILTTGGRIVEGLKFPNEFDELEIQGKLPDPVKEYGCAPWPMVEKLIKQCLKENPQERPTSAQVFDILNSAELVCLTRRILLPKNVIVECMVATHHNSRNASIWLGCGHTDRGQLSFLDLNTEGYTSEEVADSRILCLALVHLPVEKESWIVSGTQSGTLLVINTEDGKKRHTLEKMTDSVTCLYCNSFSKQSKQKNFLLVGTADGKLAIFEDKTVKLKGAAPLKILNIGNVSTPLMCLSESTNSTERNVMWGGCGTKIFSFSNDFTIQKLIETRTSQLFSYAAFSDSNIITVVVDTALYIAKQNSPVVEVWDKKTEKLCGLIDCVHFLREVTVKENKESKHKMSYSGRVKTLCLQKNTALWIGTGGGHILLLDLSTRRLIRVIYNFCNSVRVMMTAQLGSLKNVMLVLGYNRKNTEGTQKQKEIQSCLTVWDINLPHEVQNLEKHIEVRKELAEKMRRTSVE

Binder	Kd [nM]
B3	51
B4	86
B5	21
B6	11

target: T4, LRRK2 COR-B construct (C-terminal part …); assay: ELISA, purified Nb on coated domain constructs
Source text: (§2) We recombinantly expressed and purified the RocCOR, Roc, COR-B and kinase-WD40 (K-WD40) domain constructs of LRRK2 (FIG. 7). Subsequently, we performed an ELISA in which all these domain constructs were coated in parallel next to each other in the same ELISA plate, and where we subsequently detected binding of the 42 purified Nbs. […] To enrich in Nbs directed against the Roc domain we specifically included a selection step with either Roc-GTPγS or Roc-GDP.

Binder	binding result
B3	no binding
B4	no binding
B5	no binding
B7	no binding
B6	no binding

target: T1, LRRK2 Roc domain construct; assay: ELISA, purified Nb on coated domain constructs
Source text: as §2

Binder	binding result
B3	no binding
B4	no binding
B5	no binding
B7	no binding
B6	no binding

target: T2, LRRK2 RocCOR domain construct; assay: ELISA, purified Nb on coated domain constructs
Source text: as §2

Binder	binding result
B3	no binding
B4	no binding
B5	no binding
B7	no binding
B6	no binding

target: T3, LRRK2 kinase-WD40 domain construct; assay: ELISA, purified Nb on coated domain constructs
Source text: as §2

Binder	binding result
B3	no binding
B4	no binding
B5	no binding
B7	no binding
B6	no binding

target: T5, Full-length human Leucine-rich repeat …; assay: MST; LRRK2 titrated to m-TAMRA-labelled Nb, 500 µM GDP
Method: Microscale thermophoresis (MST) experiments were performed for determining equilibrium binding affinities (KD) of Nbs binding to FL-LRRK2. Therefore, Nb were site-specifically labelled at their C-terminus with m-TAMRA, using Sortase-mediated peptide exchange. The Nbs were recloned into a pHEN29 vector which is subsequently used to express and purify the Nbs with a C-terminal LPETGG-His₆-EPEA tag. Exchange of the latter peptide with an m-TAMRA-labeled GGGYK peptide (GenicBio, Shanghai, China) was performed using Sortase, and unlabeled Nb and unincorporated peptide were removed using a Ni-NTA and SEC purification step, respectively. […] After incubation at 4° C. for 30 mins, samples were loaded in capillaries and measurements were performed at 25° C. using 50-70% LED power and 80% laser intensity (laser on-time: 30 s, laser off-time: 5 s). All experiments were performed in triplicate.

Binder	Kd [nM]
B3	78
B4	48
B5	79
B6	67

target: T6, endogenous mouse LRRK2 (RAW264.7 cells) (mouse, UniProt Q5S006 1-2527); assay: immunofluorescence colocalisation of GFP-Nb and LRRK2 in RAW264.7 cells
T6 construct: also called endogenous LRRK2
Source text: To test whether Nbs can trace and visualize endogenous LRRK2 in fixed cells, we generated green fluorescent protein (GFP)-Nb fusions (fluobodies) as described before. Recently, it was shown that LRRK2 is recruited to phagosomes upon induction of phagocytosis in immune cells. Therefore, RAW264.7 cells were transfected with these fluobodies and treated with killed yeast bioparticles “zymosan” to induce phagocytosis.
RAW264.7 cells (ATCC® SC-6003™) were transfected with peGFP-Nb constructs using JetOPTIMUS (Polyplus transfection) for 24 hrs and then stimulated with Zymosan particles (Sigma Aldrich) for 30 mins ([…]). Immunostaining for LRRK2 was performed as reported before. Briefly, cells fixed with 4% (w/v) paraformaldehyde for 30 min, followed by treatment with 100% EtOH at −20° C. Sampled were permeabilized with PBS/0.5% Triton X-100 and blocked with 3% BSA. Primary antibodies (rabbit anti-LRRK2, c41-2, Abcam and mouse anti-GFP, G6539, Sigma Aldrich) were diluted in PBS containing 3% BSA and 0.5% Triton X-100 and incubated overnight at 4° C. […] Cells were washed twice with 1×PBS and mounted with Fluroshield antifade reagent with DAPI (SigmaAldrich). Images were acquired on Zeiss LSM800 confocal laser scanning microscope. Image analysis of z-scan was done using the Zeiss microscope software ZEN.

T6 sequence (Q5S006 whole entry): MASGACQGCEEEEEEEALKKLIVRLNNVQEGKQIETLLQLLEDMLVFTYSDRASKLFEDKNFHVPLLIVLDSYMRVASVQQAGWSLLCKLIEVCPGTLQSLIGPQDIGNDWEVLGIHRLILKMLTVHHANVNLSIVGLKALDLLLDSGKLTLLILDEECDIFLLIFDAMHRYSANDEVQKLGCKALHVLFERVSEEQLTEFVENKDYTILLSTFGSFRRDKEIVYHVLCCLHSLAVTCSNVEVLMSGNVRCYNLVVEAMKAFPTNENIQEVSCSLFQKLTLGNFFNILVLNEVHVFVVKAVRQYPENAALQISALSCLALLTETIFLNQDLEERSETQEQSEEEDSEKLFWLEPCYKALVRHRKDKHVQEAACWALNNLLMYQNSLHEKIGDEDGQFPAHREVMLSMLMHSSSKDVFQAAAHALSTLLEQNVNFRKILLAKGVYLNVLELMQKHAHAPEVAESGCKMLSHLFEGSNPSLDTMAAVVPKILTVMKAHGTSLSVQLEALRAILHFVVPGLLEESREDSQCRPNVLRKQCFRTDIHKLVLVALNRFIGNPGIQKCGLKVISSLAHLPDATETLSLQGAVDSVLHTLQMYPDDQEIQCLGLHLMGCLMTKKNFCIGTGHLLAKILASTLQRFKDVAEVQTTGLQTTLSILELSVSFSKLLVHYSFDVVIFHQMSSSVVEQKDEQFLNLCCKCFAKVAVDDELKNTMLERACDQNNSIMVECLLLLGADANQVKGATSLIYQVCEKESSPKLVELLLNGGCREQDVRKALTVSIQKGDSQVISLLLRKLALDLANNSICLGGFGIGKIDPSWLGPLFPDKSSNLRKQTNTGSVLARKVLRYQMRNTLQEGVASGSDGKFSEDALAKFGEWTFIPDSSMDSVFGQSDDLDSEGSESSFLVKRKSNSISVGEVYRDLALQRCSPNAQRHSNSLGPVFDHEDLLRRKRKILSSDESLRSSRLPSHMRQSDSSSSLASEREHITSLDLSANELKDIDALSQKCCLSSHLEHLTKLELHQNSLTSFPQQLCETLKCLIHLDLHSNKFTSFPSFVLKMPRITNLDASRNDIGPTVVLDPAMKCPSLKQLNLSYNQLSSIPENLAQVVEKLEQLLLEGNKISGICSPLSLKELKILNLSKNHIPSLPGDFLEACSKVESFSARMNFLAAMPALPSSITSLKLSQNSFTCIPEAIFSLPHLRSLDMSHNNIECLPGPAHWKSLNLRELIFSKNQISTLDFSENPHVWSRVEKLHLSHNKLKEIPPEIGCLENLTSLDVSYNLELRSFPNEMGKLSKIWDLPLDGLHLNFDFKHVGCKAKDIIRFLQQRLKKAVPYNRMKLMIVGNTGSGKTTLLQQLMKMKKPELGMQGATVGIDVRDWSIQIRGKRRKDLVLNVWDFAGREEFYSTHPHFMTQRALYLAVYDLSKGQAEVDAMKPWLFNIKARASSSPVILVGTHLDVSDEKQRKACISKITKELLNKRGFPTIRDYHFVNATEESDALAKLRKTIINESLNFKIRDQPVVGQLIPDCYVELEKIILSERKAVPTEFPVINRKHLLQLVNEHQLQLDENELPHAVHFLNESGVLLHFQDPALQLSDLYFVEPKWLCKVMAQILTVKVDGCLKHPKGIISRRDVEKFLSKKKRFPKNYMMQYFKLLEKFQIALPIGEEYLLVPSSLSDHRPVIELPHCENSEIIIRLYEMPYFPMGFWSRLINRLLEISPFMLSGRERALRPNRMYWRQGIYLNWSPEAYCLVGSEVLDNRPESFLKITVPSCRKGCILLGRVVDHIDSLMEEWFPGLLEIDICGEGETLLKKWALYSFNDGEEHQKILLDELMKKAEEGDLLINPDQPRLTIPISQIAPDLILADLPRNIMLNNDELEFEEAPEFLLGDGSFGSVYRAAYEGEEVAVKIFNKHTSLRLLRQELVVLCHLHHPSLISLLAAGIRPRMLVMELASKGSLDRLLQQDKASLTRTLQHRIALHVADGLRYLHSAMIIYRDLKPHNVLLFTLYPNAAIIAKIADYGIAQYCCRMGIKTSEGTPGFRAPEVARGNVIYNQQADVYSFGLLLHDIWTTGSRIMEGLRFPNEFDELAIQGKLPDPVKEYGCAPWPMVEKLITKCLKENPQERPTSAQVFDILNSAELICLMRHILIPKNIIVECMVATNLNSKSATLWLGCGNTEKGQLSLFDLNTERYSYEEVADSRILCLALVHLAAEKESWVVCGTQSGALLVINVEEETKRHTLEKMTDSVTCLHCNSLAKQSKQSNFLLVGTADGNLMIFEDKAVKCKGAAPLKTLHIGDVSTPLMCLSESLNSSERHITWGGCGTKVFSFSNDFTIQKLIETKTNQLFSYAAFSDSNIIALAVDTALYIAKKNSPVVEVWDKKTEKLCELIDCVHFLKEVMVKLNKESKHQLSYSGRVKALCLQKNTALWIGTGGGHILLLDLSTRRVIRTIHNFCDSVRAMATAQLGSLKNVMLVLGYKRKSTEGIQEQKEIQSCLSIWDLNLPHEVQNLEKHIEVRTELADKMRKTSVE

Binder	binding result
B8	binds
B9	binds
